# Measurements from IntAct's records for PubMed 31831856.
# B1: Iron-sulfur cluster assembly factor IBA57, mitochondrial (Homo sapiens), Q5T440 (parent)
# chain: MATAALLRGATPGRGGPVWRWRLRAAPRCRLAHSSCSPGGDPTAGAAWACFRLDGRTLLRVRGPDAAPFLLGLLTNELPLPSPAAAGAPPAARAGYAHFLNVQGRTLYDVILYGLQEHSEVSGFLLECDSSVQGALQKHLALYRIRRKVTVEPHPELRVWAVLPSSPEACGAASLQERAGAAAILIRDPRTARMGWRLLTQDEGPALVPGGRLGDLWDYHQHRYLQGVPEGVRDLPPGVALPLESNLAFMNGVSFTKGCYIGQELTARTHHMGVIRKRLFPVRFLDPLPTSGITPGATVLTASGQTVGKFRAGQGNVGLALLWSEKIKGPLHIRASEGAQVALAASVPDWWPTVSK
# partner: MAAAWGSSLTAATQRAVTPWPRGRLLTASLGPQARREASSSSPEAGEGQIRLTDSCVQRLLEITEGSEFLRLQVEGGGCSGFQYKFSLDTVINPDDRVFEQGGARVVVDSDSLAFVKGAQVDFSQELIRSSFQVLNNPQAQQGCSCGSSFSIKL
# Variants of: B1
# Details: with isca2_human ISCA2, Q86U28
row,effect of a mutation on the interaction,Variant
1,disrupting interaction strength,R146W
